Measurements published in patent publication US20180371066A1 (C2N DIAGNOSTICS, published 2018).

Assays:
PEP_2875804 = molecular target: T1, PEP_2875804; assay: peptide array of 15-mers of human tau probed with the antibody; label LIN
T1 peptide: AGTYGLGDRKDQGGY

PEP_2875806 = molecular target: T2, PEP_2875806; assay: as above
T2 peptide: GTYGLGDRKDQGGYT

PEP_2875808 = molecular target: T3, PEP_2875808; assay: as above
T3 peptide: TYGLGDRKDQGGYTM

PEP_2875810 = molecular target: T4, PEP_2875810; assay: as above
T4 peptide: YGLGDRKDQGGYTMH

PEP_2875812 = molecular target: T5, PEP_2875812; assay: as above
T5 peptide: GLGDRKDQGGYTMHQ

PEP_2875814 = molecular target: T6, PEP_2875814; assay: as above
T6 peptide: LGDRKDQGGYTMHQD

PEP_2875816 = molecular target: T7, PEP_2875816; assay: as above
T7 peptide: GDRKDQGGYTMHQDQ

PEP_2875818 = molecular target: T8, PEP_2875818; assay: as above
T8 peptide: DRKDQGGYTMHQDQE

PEP_2875820 = molecular target: T9, PEP_2875820; assay: as above
T9 peptide: RKDQGGYTMHQDQEG

PEP_2875822 = molecular target: T10, PEP_2875822; assay: as above
T10 peptide: KDQGGYTMHQDQEGD

PEP_2875824 = molecular target: T11, PEP_2875824; assay: as above
T11 peptide: DQGGYTMHQDQEGDT

PEP_2875826 = molecular target: T12, PEP_2875826; assay: as above
T12 peptide: QGGYTMHQDQEGDTD

[1] = molecular target: T13, recombinant human Tau-412 protein (human, UniProt P10636-7 1-412); assay: SPR Biacore T200, mAb captured on Protein A, Tau-412 analyte, 1-to-1 model, chip A11/3
T13 construct: Analyte of the SPR study; also called human tau (1N4R, 412 amino acids)
T13 sequence (P10636 other isoform, or with tags, fused parts or gaps limits assumed): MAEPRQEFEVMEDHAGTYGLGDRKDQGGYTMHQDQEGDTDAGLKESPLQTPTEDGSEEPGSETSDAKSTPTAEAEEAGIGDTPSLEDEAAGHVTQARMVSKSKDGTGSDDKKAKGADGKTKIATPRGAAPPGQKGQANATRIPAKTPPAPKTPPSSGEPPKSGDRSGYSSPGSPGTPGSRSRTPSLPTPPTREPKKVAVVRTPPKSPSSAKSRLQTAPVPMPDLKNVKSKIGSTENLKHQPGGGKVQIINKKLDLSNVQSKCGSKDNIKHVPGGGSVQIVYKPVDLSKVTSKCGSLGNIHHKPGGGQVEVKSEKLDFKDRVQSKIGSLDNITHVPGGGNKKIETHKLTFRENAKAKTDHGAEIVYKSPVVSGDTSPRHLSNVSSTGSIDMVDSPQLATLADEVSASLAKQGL
Method: Kinetic data was obtained at a flow rate of 40 μL/min to minimize any potential mass transfer effects. Two repeats of the blank (no antigen) and the 2.5 nM concentration of the analyte were programmed into the kinetic run in order to check the stability of both the surface and analyte over the kinetic cycles. For the initial kinetic runs, 2-fold dilutions of Tau-412 from 40 nM to 0.156 nM were run. For kinetic analysis and on subsequent runs, an analyte range of 20 nM to 0.625 nM was selected. This range covered multiple analyte concentrations both above and below the reported KD.
The association phase was monitored for 500 seconds to allow some of the higher concentrations of analyte to reach steady state. In order to observe a sufficient signal decrease (>10%) during the dissociation phase of the kinetic cycle, dissociation was measured for 1200 seconds. As discussed in Section 5, the Fcs were allowed to stabilize for 600 seconds after each regeneration step. The signal from the reference channel Fc1 was subtracted from that of Fc2, Fc3 and Fc4.
The kinetic parameters for the interaction of Tau-412 with the 7 mAbs as measured using the Protein A capture system on the Biacore T200 are shown in Table F-2. To correct for differences in the capture level of the antibody between each binding cycle, a local Rₘₐₓ parameter was used in the 1-to-1 binding model. Kinetic analysis was performed in three independent runs using fresh preparations of Tau-412 and antibody. Run 1 and runs 2+3 used different vials of the antigen Tau-412; therefore the reported errors associated with the mean response probably represent variation in preparation of the analyte and differences in assay set-up and run. From run 1 to runs 2+3, the amount of antibody injected was adjusted to try to get closer to the target 300 RU capture levels.

rhesus monkey tau = molecular target: T14, rhesus monkey tau (rhesus monkey, UniProt P57786 2-60); assay: direct ELISA on 96-well plates coated with tau at varied concentration; OD 650nm
T14 construct: also called rhesus tau
T14 sequence: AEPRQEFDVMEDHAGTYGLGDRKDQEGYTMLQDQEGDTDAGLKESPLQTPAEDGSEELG
Method: FIG. 10 illustrates the binding results for different anti human tau antibodies to either human or rhesus monkey tau. Murine anti human tau antibodies HJ8.5 and HJ8.7 alongside humanized variant VH1/VK2 (also referred to as C₂N-8E12) were tested. […] In order to determine whether these amino acid difference between the two species of tau, impacts the ability of antibodies HJ8.5/C₂N-8E12 to bind the following experiment was performed. Binding of C₂N-8E12, HJ8.5 (murine precursor of C₂N-8E12), and HJ8.7 (murine anti-human tau antibody that binds to an epitope of tau where the human and rhesus amino acid sequence is 100% conserved) to human and rhesus tau by coating 96 well ELISA plates with either human or rhesus tau at various concentrations was measured. […] As expected, HJ8.7 binds to both human and rhesus tau.

PEP_2875809 = molecular target: T15, PEP_2875809; assay: peptide array of 15-mers of human tau probed with the antibody; label LIN.AA (double alanine)
T15 peptide: TYGLGDRKDAAGYTM

PEP_2875817 = molecular target: T16, PEP_2875817; assay: as above
T16 peptide: GDRKDQGGYAAHQDQ

PEP_2875821 = molecular target: T17, PEP_2875821; assay: as above
T17 peptide: RKDQGGYTMAADQEG

PEP_2875827 = molecular target: T18, PEP_2875827; assay: as above
T18 peptide: QGGYTMHQDAAGDTD

human tau [2] = molecular target: T19, human tau (human, UniProt P10636 2-60); assay: competition ELISA on plate-coated human tau against biotinylated HJ8.5; IC50 normalised to chimeric HJ8.5; column External
T19 construct: also called soluble human tau; human tau protein
T19 sequence (P10636 2-60 limits assumed): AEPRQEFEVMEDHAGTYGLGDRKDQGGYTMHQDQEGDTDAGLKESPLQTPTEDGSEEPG

human tau [3] = molecular target: T19, human tau; assay: competition ELISA on plate-coated human tau against biotinylated HJ8.5; IC50 normalised to chimeric HJ8.5; column C2N Run 2

B1: VH1/VK2 humanized anti-tau antibody (C2N-8E12) (antibody, human IgG4 S228P, kappa, V domains shown)
VH: EVKVVESGGGLVQPGGSMKLSCVVSGFTFSNYWVNWVRQAPGKGLEWVAQIRLKSDNYATHYEESVKGRFTISRDDSKSSVYLQMNNLRAEDSGIYYCTNWEDYWGQGTTVTVSS
VL: DIVLTQSPDSLAVSLGERATISCRASQSVSTSRYSYIHWYQQKPGQPPKLLIKYASNLESGVPSRFSGSGSGTDFTLNIHPLEPEDFATYYCHHSWEIPLTFGQGTKLEIKR
notes: Humanized recombinant IgG4 with S241P hinge mutation, human kappa light chain; also called C2N-8EI2
Binding Signal (PEP_2875804): 1290 | Binding Signal (PEP_2875806): 1710 | Binding Signal (PEP_2875808): 2590 | Binding Signal (PEP_2875810): 2670 | Binding Signal (PEP_2875812): 2730 | Binding Signal (PEP_2875814): 2750 | Binding Signal (PEP_2875816): 2700 | Binding Signal (PEP_2875818): 2790 | Binding Signal (PEP_2875820): 2780 | Binding Signal (PEP_2875822): 2680 | Binding Signal (PEP_2875824): 2650 | Binding Signal (PEP_2875826): 789 | Kd [1]: 1.95 nM | koff [1]: 0.000632 s⁻¹ | kon [1]: 325000 M⁻¹ s⁻¹ | binding result (rhesus monkey tau): no binding | Binding Signal (PEP_2875809): 2760 | Binding Signal (PEP_2875817): 661 | Binding Signal (PEP_2875821): 2790 | Binding Signal (PEP_2875827): 636 | IC50 (Relative to Chimera) (human tau [2]): 0.78 relative to Chimera | IC50 (Relative to Chimera) (human tau [3]): 0.91 relative to Chimera
